Values quoted from earlier work as cited in paper PMC4664810.
pKd: −log10 of the molar value. Where two headings read alike, the source gives them in different places.

Key:
CD20 (Homo sapiens) [1] = target: CD20 (Homo sapiens) (UniProt P11836)
CD20 (Homo sapiens) [2] = target: CD20 (Homo sapiens) (UniProt P11836); remark: listed apart in the source

Chain of CD20 (Homo sapiens) (P11836 whole entry): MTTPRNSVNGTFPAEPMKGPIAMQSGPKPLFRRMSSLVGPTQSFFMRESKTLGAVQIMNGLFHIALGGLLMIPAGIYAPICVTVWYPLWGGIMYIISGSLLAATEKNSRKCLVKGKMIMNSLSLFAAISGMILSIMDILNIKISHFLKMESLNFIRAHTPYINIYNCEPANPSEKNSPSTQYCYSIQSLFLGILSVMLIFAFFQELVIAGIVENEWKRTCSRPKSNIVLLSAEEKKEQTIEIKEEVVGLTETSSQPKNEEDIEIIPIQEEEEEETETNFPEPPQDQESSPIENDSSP

Substance	pKd (CD20 (Homo sapiens) [1])	pKd (CD20 (Homo sapiens) [2])
rituximab	8.26	
ofatumumab		8.32
